Data from article PMC6884004.
Values belong to the molecule of their own block, whether it stands above or below them.

Experiments:
[1] = target: synthetic MTED peptide (MT elimination domain of Drosophila Efa6) (Drosophila melanogaster); experiment: pull-down; MTED or scrambled peptide coupled via the N-terminal amine to cyanogen bromide-activated Sepharose beads (5 ng peptide/μl beads); 15 μM porcine brain tubulin (un-polymerised GDP-tubulin); BRB80 with 0.2% Tween 20, 30 min, 20°C; five washes; SDS-PAGE band intensity compared with uncoated beads
[2] = target: Full length human MCAK (mitotic centromere-associated kinesin) (human) (UniProt Q99661); experiment: pull-down; full length human MCAK coupled (1 µg/µl beads) to cyanogen bromide-activated Sepharose beads via lysines or the N-terminal amine; beads pre-incubated with 5 mM AMPPNP or ADP for 30 min at 20°C; 15 μM porcine brain tubulin, 30 min, 20°C; nucleotide kept in the washing buffer; SDS-PAGE band intensity compared with uncoated beads
[3] = target: GMPCPP-stabilised, rhodamine-labeled microtubules grown from porcine brain tubulin (porcine) (UniProt P02550); experiment: TIRF microscopy of GFP-tagged protein on surface-adhered microtubules; GMPCPP-stabilised rhodamine-labeled MTs adhered to flow chambers; 20 nM Efa6-ΔCterm::GFP in BRB20 pH 6.9, 75 mM KCl, 0.05% Tween20, 0.1 mg/ml BSA, or 20 nM MCAK::GFP in the same buffer plus 1 mM ATP and 1 mM taxol; mean GFP intensity on individual MTs
[4] = target: porcine brain tubulin (un-polymerised GDP-tubulin) (porcine) (UniProt P02550)

fold tubulin pulled down against beads coated with scrambled peptide [1]: 5 fold | fold tubulin pulled down against uncoated beads [1]: 3 fold | fold tubulin pulled down against uncoated beads (with AMPPNP or ADP) [2]: 1.5 fold
Molecule: porcine brain tubulin (un-polymerised GDP-tubulin) (from UniProt P02550 1-451; P02554 1-445) (complex)

fold of molecules on MTs against Efa6-ΔCterm::GFP at the same concentration [3]: > 2 fold
B1: MCAK::GFP (His6-MCAK::EGFP-StrepII) (enzyme)
chain: MAMDSSLQARLFPGLAIKIQRSNGLIHSANVRTVNLEKSCVSVEWAEGGATKGKEIDFDDVAAINPELLQLLPLHPKDNLPLQENVTIQKQKRRSVNSKIPAPKESLRSRSTRMSTVSELRITAQENDMEVELPAAANSRKQFSVPPAPTRPSCPAVAEIPLRMVSEEMEEQVHSIRGSSSANPVNSVRRKSCLVKEVEKMKNKREEKKAQNSEMRMKRAQEYDSSFPNWEFARMIKEFRATLECHPLTMTDPIEEHRICVCVRKRPLNKQELAKKEIDVISIPSKCLLLVHEPKLKVDLTKYLENQAFCFDFAFDETASNEVVYRFTARPLVQTIFEGGKATCFAYGQTGSGKTHTMGGDLSGKAQNASKGIYAMASRDVFLLKNQPCYRKLGLEVYVTFFEIYNGKLFDLLNKKAKLRVLEDGKQQVQVVGLQEHLVNSADDVIKMIDMGSACRTSGQTFANSNSSRSHACFQIILRAKGRMHGKFSLVDLAGNERGADTSSADRQTRMEGAEINKSLLALKECIRALGQNKAHTPFRESKLTQVLRDSFIGENSRTCMIATISPGISSCEYTLNTLRYADRVKELSPHSGPSGEQLIQMETEEMEACSNGALIPGNLSKEEEELSSQMSSFNEAMTQIRELEEKAMEELKEIIQQGPDWLELSEMTEQPDYDLETFVNKAESALAQQAKHFSALRDVIKALRLAMQLEEQASRQISSKKRPQ

fold decrease in amount of MT polymer in the MT growth assay (30 μM tubulin with 30 μM MTED peptide, against no peptide) [4]: 10 fold
Molecule: APRFEAYMMTGDLILNLSRT [synthetic MTED peptide (MT elimination domain of Drosophila Efa6)]
